Reference: patent US20140363441A1 (priority 2013, published 2014)
Substitutions are numbered along the chain they refer to. Values joined by “and” are separate entries in the source; they are usually repeats but may differ in a detail not shown here. Equal values may be shown once. “Also recorded” adds a separate entry of the source.

What was measured:
H5N1 (A/Vietnam/1203/04) [1] = test system: H5N1 (A/Vietnam/1203/04); parameters: species or system balb/c mice; details: mouse, in vivo
H5N1 (A/Vietnam/1203/04) [2] = test system: H5N1 (A/Vietnam/1203/04); parameters: species or system balb/c mice; details: mouse, in vivo; remark: listed apart in the source
[3] = biological target: influenza A/Puerto Rico/8/34 (PR8) virus particles (M2 protein on the virion) (influenza A virus H1N1 A/Puerto Rico/8/34) (UniProt P06821); assay: affinity of FAb fragments on whole PR8 virus
[4] = biological target: influenza A/Puerto Rico/8/34 (PR8) virus particles (M2 protein on the virion) (influenza A virus H1N1 A/Puerto Rico/8/34) (UniProt P06821); assay: surface plasmon resonance, Fab fragment on influenza virus
HVIR1 = assay: peptide ELISA, mAb 5 µg/mL
[5] = biological target: M2 protein of influenza A/Hong Kong/483/1997 (H5N1), expressed on cells (influenza A virus H5N1 A/Hong Kong/483/97)

**Q.** What does the source list for CCOC(=O)C1=C[C@@H](OC(CC)CC)[C@H](NC(C)=O)[C@@H](N)C1 [oseltamivir]?
**A.** survival rate (H5N1 (A/Vietnam/1203/04) [1]): extinction of the population prior to the end of the therapy; percentage of weight remaining (H5N1 (A/Vietnam/1203/04) [2]): completely protected; also recorded: retained more weight

**Q.** Which Kd [3] does the source give for ch14C2 Fab fragment here?
**A.** Its Kd is 4 µM.

**Q.** What about the koff [3] of the same molecule?
**A.** The koff was 0.00286 s⁻¹.

**Q.** And the kon [3]?
**A.** The kon was 500 M⁻¹ s⁻¹.

**Q.** What about the Kd [4] of the same molecule?
**A.** The Kd was 4 µM.

**Q.** And the koff [4]?
**A.** Its koff is 0.0018 s⁻¹.

**Q.** And the kon [4]?
**A.** Its kon is 500 M⁻¹ s⁻¹.

B1: 8I10 (TCN-032) (antibody, V domains shown)
VH: QVQLQESGPGLVKPSETLSLTCTVSGSSISNYYWSWIRQSPGKGLEWIGFIYYGGNTKYNPSLKSRVTISQDTSKSQVSLTMSSVTAAESAVYFCARASCSGGYCILDYWGQGTLVTVS
VL: DIQMTQSPSSLSASVGDRVTITCRASQNIYKYLNWYQQRPGKAPKGLISAASGLQSGVPSRFSGSGSGTDFTLTITSLQPEDFATYYCQQSYSPPLTFGGGTRVEIK
**Q.** B1 was tested. Which ELISA A450 (HVIR1) did it give?
**A.** Its ELISA A450 is 0.11.

**Q.** What about the MFI [5] of the same molecule?
**A.** Its MFI is 754 MFI and 1080 MFI.

B2: 3259_J21 (antibody, V domains shown)
VH: QVQLQESGPRVVRPSETLSLTCTVSGGSISSYNWIWIRQPPGKGLEWIGHIYDYGRTFYNSSLQSRPTISVDASKNQLSLRLTSVTASDTAVYYCARPLGILHYYAMDLWGQGTTVTVSS
VL: DIQMTQSPLSVSVSVGDRVTIACRASQSIDKFLNWYQQKPGKAPKLLIYGASNLHSGAPSRFSASGSGTDFTLTITNIQTEDFATYLCQQSFSVPAFGGGTKVEIK
**Q.** Which MFI [5] does the source give for B2 here?
**A.** The MFI was 1670 MFI.

B3: 3136_G05 (antibody, V domains shown)
VH: QVQLQESGPGLVKPSETLSLTCSVSGGSISSDFWSWIRQPPGKGLEWIGYVYNRGSTKYSPSLKSRVTISADMSKNQFSLNMSSVTAADTAVYYCAKNGRSSTSWGIDVWGKGTTVTVSS
VL: DIQMTQSPSSLSASVGDRLTITCRASQSISTYLHWYQQKPGKAPKLLIYAASSLQSGVPSRFSGSRSGTDFTLTISSLQPDDFATYYCQQSYSPPLTFGPGTKVDMK
**Q.** B3 was tested. Which MFI [5] did it give?
**A.** Its MFI is 109 MFI.

B4: 3248_P18 (antibody, V domains shown)
VH: QVQLQESGPGLVKPSETLSLTCTVSGGSISAYHWSWIRQPPGKGLEWIGHIFDSGSTYYNPSLKSRVTISLDASKNQLSLRLTSVTASDTAIYYCARPLGSRYYYGMDVWGQGTTVTVSS
VL: DIQMTQSPSSLSASVGDRVTITCRASQSISRYLNWYQQKPGKAPKLLIYGASTLQNGAPSRFSGSGSGTDFTLTISSLQPEDSATYLCQQSYSVPAFGGGTKVEVK
**Q.** B4 was tested. Which MFI [5] did it give?
**A.** Its MFI is 967 MFI.

B5: 3253_P10 (antibody, V domains shown)
VH: QVQLQESGPGLLKPSDTLALTCTVSGGSITSDYWSWIRQPPGRGLDWIGFFYNGGSTKYNPSLKSRVTISADTSKNQLSLKLTSVTAADTGVYYCARHDAKFSGSYYVASWGQGTRVTVSS
VL: DIQMTQSPSSLSASVGDRVTISCRASQSISTYLNWYQQQPGKAPKVLISGATDLQSGVPSRFSGSGSGTDFTLTISSLQPEDFATYYCQQSYNTPLIFGQGTKLEIK
**Q.** For B5, which MFI [5] is on record?
**A.** The MFI was 43 MFI.

B6: 3243_J07 (antibody, V domains shown)
VH: B5 VH with A100V
VL: B5 VL with D53N
**Q.** With B6 as the molecule, how does the MFI [5] read?
**A.** Its MFI is 131 MFI.

B7: 3244_I10 (antibody, V domains shown)
VH: B5 VH
VL: B5 VL with S49F, D53N
**Q.** How did the MFI [5] turn out when B7 was run?
**A.** Its MFI is 434 MFI.

B8: 3241_G23 (antibody, V domains shown)
VH: QVQLQQSGPGLVKPSQTLSLTCTVSGGPVSGGGYSWNWIRQRPGQGLEWVGFMFHSGSPRYNPTLKSRITISVDTSKNLVSLKLSSVTAADTAVYFCARVGQMDKYYAMDVWGQGTTVTVSS
VL: DIQMTQSPSSLSSSVGDRVTITCRASQSIGAYVNWYQQKAGKAPQVLIFGASNLQSGVPSRFSGSGSGTDFTLTISSLQPEDFATYFCQQTYSTPITFGQGTRLEIK
**Q.** Which MFI [5] does the source give for B8 here?
**A.** Its MFI is 1700 MFI.

B9: 3139_P23 (antibody, V domains shown)
VH: QVQLQESGPRLVKPSESLSLTCTVSGGSISNSFWGWIRQPPGEGLEWIGYVYNSGNTKYNPSLKSRVTISRDTSKSQLYMKLRSVTAADTAVYYCARHDDASHGYSISWGHGTLVTVSS
VL: DIQMTQSPSSLSASVGDRVTITCRASQTISTYLNWYQQKSGKAPKLLIYAASGLQSGVPSRFSGSGSGTDFTLTISSLQPEDFATYFCQQSYNTPLTFGQGTKVEIK
**Q.** With B9 as the molecule, how does the MFI [5] read?
**A.** Its MFI is 110 MFI.

B10: 3244_H04 (antibody, V domains shown)
VH: EVQLVESGGGLVQPGGSLRLSCTASGLSVSSTYMNWVRQAPGKGLEWVSVFYSETRTYYADSVKGRFTVSRHNSNNTLYLQMNSLRAEDTAVYYCARVQRLSYGMDVWGQGTTVTVSS
VL: DIQMTQSPSSLSASVGDRVTITCRASQSISTYLNWYQKRPGKAPKLLVYGASSLQSGVPSRFSGSGSGTDFTLTIASLQPEDSAVYYCQQTYSIPLFGQGTRLEIK
**Q.** How did the MFI [5] turn out when B10 was run?
**A.** The MFI was 963 MFI.

B11: 3245_O19 (antibody, V domains shown)
VH: B10 VH with A87V
VL: B10 VL with S53T, V85T
**Q.** For B11, which MFI [5] is on record?
**A.** The MFI was 919 MFI.

B12: 3260_D19 (antibody, V domains shown)
VH: DMQLVESGGGLVPPGGSLRLSCAASGFSVSDNYINWVRQAPGKGLDWVSVFYSADRTSYADSVKGRFTVSSHDSKNTVYLQMNSLRAEDTAVYYCARVQKSYYGMDVWGQGTTVTVSS
VL: GIQMTQSPSSLSASVGDRVTITCRASQSISRYLNWYLQKPGKAPKLLISGASSLQSGVPSRFSGTGSGTEFTLTISSLQPEDFATYYCQQTFSIPLFGQGTKVEIK
**Q.** With B12 as the molecule, how does the MFI [5] read?
**A.** Its MFI is 846 MFI.

B13: 3242_P05 (antibody, V domains shown)
VH: B12 VH
VL: B12 VL
**Q.** With B13 as the molecule, how does the MFI [5] read?
**A.** Its MFI is 596 MFI.

B14: 23K12 (TCN-031) (antibody, V domains shown)
VH: EVQLVESGGGLVQPGGSLRISCAASGFTVSSNYMSWVRQAPGKGLEWVSVIYSGGSTYYADSVKGRFSFSRDNSKNTVFLQMNSLRAEDTAVYYCARCLSRMRGYGLDVWGQGTTVTVS
VL: DIQMTQSPSSLSASVGDRVTITCRTSQSISSYLNWYQQKPGKAPKLLIYAASSLQSGVPSRFSGSGSGTDFTLTISGLQPEDFATYYCQQSYSMPAFGQGTKLEIK
**Q.** B14 was tested. Which ELISA A450 (HVIR1) did it give?
**A.** Its ELISA A450 is 0.21.

B15: 3252_C13 (antibody, V domains shown)
VH: QVQLQESGPGLVKPSETLSLTCTVSGASISSDYWSWIRLPPGKGLEWIGYIYNRGSTKYTPSLKSRVTISLDTAENQFSLRLRSVTAADTAIYYCARHVGGHTYGIDYWGQGTLVTVSS
VL: DIQMTQSPSSLSASVGDRVTITCRASQSISNYLNWYQHKPGEAPKLLNYAASSLQSGVPSRFSASGSGTDFTLTISSLQPEDFATYYCQQSYNTPITFGQGTRLEIK
**Q.** With B15 as the molecule, how does the MFI [5] read?
**A.** Its MFI is 449 MFI.

B16: 3420_I23 (antibody, V domains shown)
VH: QVQLQESGPGLVKPSETLSVTCKVSGDSISSYSWSWIRQPPGKGLEWVGYLYYSGSTKYNPSLKSRTTISVDTSTNQLSLKLSFVTAADTAVYFCARTGSESTTGYGMDVWGQGTTVTVSS
VL: B15 VL with N31T, H38Q, E42K, N48I, Q55H, A64G, T72A, N93S, T94P
**Q.** Which MFI [5] does the source give for B16 here?
**A.** Its MFI is 112 MFI.

B17: 3362_B11 (antibody, V domains shown)
VH: QVQLQASGPGLVKPSETLSLTCTVSGDSITSGAYYWTWIRQHPGKGLEWIGYIYYSGNTYYNPSLKSRVTISLDTSKNQFSLKVNSVTAADTAVYYCARAASTSVLGYGMDVWGQGTTVTVSS
VL: B15 VL with N31R, H38Q, K39E, E42K, N48V, A64G, N93S, I96L
**Q.** For B17, which MFI [5] is on record?
**A.** The MFI was 218 MFI.

B18: 3255_J06 (antibody, V domains shown)
VH: B15 VH with I92V
VL: B15 VL with T74S, S77G, Q100P
**Q.** Which MFI [5] does the source give for B18 here?
**A.** The MFI was 442 MFI.
